Assay results published in the RNAGym collection of RNA variant scans (doi:10.7554/elife.90254).

B1: LINE1-full (parent)
chain: UACGUAGGUGGUUUUCCCCUGAUAGUGCUAAGGGGGCCUGGAAGUUUGGACUGGGCAGAGCUCAACACAGCGUGGCAAAGUGGCUGUGGCUAGACUGCCUCUCUGGAUUCCUCGUCACUCAGCAGGGCAUCUCUGAGAGAAAUGCC

Variants of: B1
Test: self-cleavage, relative activity (ratio to wild type); higher = more cleavage; in vitro, sequencing; the parent is a self-cleaving ribozyme

Row | Variant | self-cleavage
1 | UACGUAGGUGGUUUUCCCCUGAUGGUGCUAAGGGGGCCUGGAAGUUUGGACUGGGCAGAGCUCAACACAGCGUGGCAAAGUGGCUGUGGCUAGACUGCCUCUCUGGAUUCCUCGUCACUCAGCAGGGCAUUUCUGAGAGAAAUGCC [A24G C131U] | 1.59
2 | UACGUAGGUGGUUUUCCCCUGAUGGUGCUAAGGGGGCCGGGAAGUUUGGACUGGGCAGAGCUCAACACAGCGUGGCAAAGUGGCUGUGGCUAGACUGCCUCUCUGGAUUCCUCGUCACUCAGCAGGGCAUCUCUGAGAGAAAUGCC [A24G U39G] | 0.76
3 | UACGUAGGUGGUUUUCCCCUGAUGGUGCUAAGGGGGCCCGGAAGUUUGGACUGGGCAGAGCUCAACACAGCGUGGCAAAGUGGCUGUGGCUAGACUGCCUCUCUGGAUUCCUCGUCACUCAGCAGGGCAUCUCUGAGAGAAAUGCC [A24G U39C] | 1.11
4 | UACGUAGGUGGUUUUCCCCUGAUGGUGCUAAGGGGGCCUGGAAGUUUGGACUGGUCAGAGCUCAACACAGCGUGGCAAAGUGGCUGUGGCUAGACUGCCUCUCUGGAUUCCUCGUCACUCAGCAGGGCAUCUCUGAGAGAAAUGCC [A24G G55U] | 0.26
5 | UACGUAGGUGGUUUUCCCCUGAUGGUGCUAAGGGGGCCUGGAAGUUUGGACUGGACAGAGCUCAACACAGCGUGGCAAAGUGGCUGUGGCUAGACUGCCUCUCUGGAUUCCUCGUCACUCAGCAGGGCAUCUCUGAGAGAAAUGCC [A24G G55A] | 0.3
6 | UACGUAGGUGGUUUUCCCCUGAUGGUGCUAAGGGGGCCUGGAAGUUUGGACCGGGCAGAGCUCAACACAGCGUGGCAAAGUGGCUGUGGCUAGACUGCCUCUCUGGAUUCCUCGUCACUCAGCAGGGCAUCUCUGAGAGAAAUGCC [A24G U52C] | 0.12
7 | UACGUAGGUGGUUUUCCCCUGAUGGUGCUAAGGGGGUCUGGAAGUUUGGACUGGGCAGAGCUCAACACAGCGUGGCAAAGUGGCUGUGGCUAGACUGCCUCUCUGGAUUCCUCGUCACUCAGCAGGGCAUCUCUGAGAGAAAUGCC [A24G C37U] | 0.83
8 | UACGUAGGUGGUUUUCCCCUGAUGGUGCUAAGGGGGACUGGAAGUUUGGACUGGGCAGAGCUCAACACAGCGUGGCAAAGUGGCUGUGGCUAGACUGCCUCUCUGGAUUCCUCGUCACUCAGCAGGGCAUCUCUGAGAGAAAUGCC [A24G C37A] | 1.07
9 | UACGUAGGUGGUUUUCCCCUGAUGGUGCUAAGGGGGCCUGGAAGUUUGGACUGGGCAGAGCUAAACACAGCGUGGCAAAGUGGCUGUGGCUAGACUGCCUCUCUGGAUUCCUCGUCACUCAGCAGGGCAUCUCUGAGAGAAAUGCC [A24G C63A] | 0
10 | UACGUAGGUGGUUUUCCCCUGAUGGUGCUAAGGGGGCCUGGAAGUUUGGACUGGGCAGAGCUCAACACAGUGUGGCAAAGUGGCUGUGGCUAGACUGCCUCUCUGGAUUCCUCGUCACUCAGCAGGGCAUCUCUGAGAGAAAUGCC [A24G C71U] | 1.03
11 | UACGUAGGUGGUUUUCCCCUGAUGGUGCUAAGGGGGCCUGGAAGUUAGGACUGGGCAGAGCUCAACACAGCGUGGCAAAGUGGCUGUGGCUAGACUGCCUCUCUGGAUUCCUCGUCACUCAGCAGGGCAUCUCUGAGAGAAAUGCC [A24G U47A] | 1.44
12 | UACGUAGGUGGUUUUCCCCUGAUGGUGCUAAGGGGGCCUGGAAGUUUGGACUGGGCAGAGCUCAACACAGCGUGGCAAAGUGGCUGUGGCUAGACUGCCUCUCUGAAUUCCUCGUCACUCAGCAGGGCAUCUCUGAGAGAAAUGCC [A24G G106A] | 0.78
13 | UACGUAGGUGGUUUUCCCCUGAUGGUGCUAAGGGGGCCUGGAAGUUUGGACUGGGCAGAGCUCAACACAGCGUGGCAAAGUGGCUGUGGCUAGACUGCCUCUCUGGAUUCCUCGUCACUCAGCAGGGCAUCUCUGAGAGAAAUGCU [A24G C146U] | 1.61
14 | UACGUAGGUGGUUUUCCCCUGAUGGUGCUAAGGGGGCCUGGAAGUUUGGACUGGGCAGAGCUCAACACAGCGUGGCAAAGUGGCUGAGGCUAGACUGCCUCUCUGGAUUCCUCGUCACUCAGCAGGGCAUCUCUGAGAGAAAUGCC [A24G U87A] | 0.03
15 | UACGUAGGUGGUUUUCCCCUGAUGGUGCUAAGGGGGCCUGGAAGUUUGGACUGGGCAGAGCUCAACACAGCGUGGCAAAGUGGCUGUGGCUAGACUGCCUCUCUGGAUUCAUCGUCACUCAGCAGGGCAUCUCUGAGAGAAAUGCC [A24G C111A] | 1.74
16 | UACGUAGGUGGUUUUCCCCUGAUGGUGCUAAGGGGGCCUGGAAGUUUGGACUGGGCAGAGCUCAACACAGCGUGGCAAAGUGGCUGUGGCUAGACUGCCUCUCUGGAUUCCUCGUCACUCAGCAGGGCAUCUCUGAGAGAAAUACC [A24G G144A] | 1.35
17 | UACGUAGGUGGUUUUCCCCUGAUGGUGCUAAGGGGGCCUGGAAGUUUGGACUGGGCAGAGCUCAACACAGCGUGGCAAAGUGGCUGUGGCUAGACUGACUCUCUGGAUUCCUCGUCACUCAGCAGGGCAUCUCUGAGAGAAAUGCC [A24G C98A] | 0.13
18 | UACGUAGGUGGUUUUCCCCUGAUGGUGCUAAGGGGGCCUGGAAGUUUGGAUUGGGCAGAGCUCAACACAGCGUGGCAAAGUGGCUGUGGCUAGACUGCCUCUCUGGAUUCCUCGUCACUCAGCAGGGCAUCUCUGAGAGAAAUGCC [A24G C51U] | 1.68
19 | UACGUAGGUGGUUUUCCCCUGAUGGUGCCAAGGGGGCCUGGAAGUUUGGACUGGGCAGAGCUCAACACAGCGUGGCAAAGUGGCUGUGGCUAGACUGCCUCUCUGGAUUCCUCGUCACUCAGCAGGGCAUCUCUGAGAGAAAUGCC [A24G U29C] | 1.41
20 | UACGUAGGUGGUUUUCCCCUGAUGGAGCUAAGGGGGCCUGGAAGUUUGGACUGGGCAGAGCUCAACACAGCGUGGCAAAGUGGCUGUGGCUAGACUGCCUCUCUGGAUUCCUCGUCACUCAGCAGGGCAUCUCUGAGAGAAAUGCC [A24G U26A] | 0.84

Row | Variant | self-cleavage
21 | UACGUAGGUGGUUUUCCCCUGAUGGUGCUAAGGGGGCCUGGAAGUUUGGACUGGGCAGAGCUCAACACAGCGUGGCAAAGUGGCUGUGGCUAGACUGCCUCUCUGGAUUCCUCGUCACUCAGCAGGGCAUCACUGAGAGAAAUGCC [A24G U132A] | 1.12
22 | UACGUAGGUGGUUUUCCCCUGAUGGUGCUAAGGGGGCCUGGAAGUUUGGACUGGGCAGAGCUCAACACAGCGUGGCAAAGUGGCUGUGGCUAGACUGCCUCUCUGGAUUCCUCGUCACUCAGCAGGGCAUCCCUGAGAGAAAUGCC [A24G U132C] | 1.17
23 | UACGUAGGUGGUUUUCCCCUGAUGGUGCUAAGGGGGCCUGGAAGUUUGGACUGGGCAGAGCUCAACACAGCGUGGCAAAGUGGCUGUGGCUAGACAGCCUCUCUGGAUUCCUCGUCACUCAGCAGGGCAUCUCUGAGAGAAAUGCC [A24G U96A] | 0.11
24 | UACGUAGGUGGUUUUCCCCUGAUGGUGCUAAGGGGGCCUGGAAGUUUGGACUGGGCAGAGCUCAACACAGCGUGGCAAAGUGGCUGUGGCUAGACGGCCUCUCUGGAUUCCUCGUCACUCAGCAGGGCAUCUCUGAGAGAAAUGCC [A24G U96G] | 0
25 | UACGUAGGUGGUUUUCCCCUGAUGGUGCUAAGGGGGCCUGGAAGUUUGGACUGGGCAGAGCUCAACACAGCGUGGCAAAGUGGCUGUGGCUAGACCGCCUCUCUGGAUUCCUCGUCACUCAGCAGGGCAUCUCUGAGAGAAAUGCC [A24G U96C] | 0.31
26 | UACGUAGGUGGUUUUCCCCUGAUGGUGCUAAGGGGGCCUGGAAGUAUGGACUGGGCAGAGCUCAACACAGCGUGGCAAAGUGGCUGUGGCUAGACUGCCUCUCUGGAUUCCUCGUCACUCAGCAGGGCAUCUCUGAGAGAAAUGCC [A24G U46A] | 0.9
27 | UACGUAGGUGGUUUUCCCCUGAUGGUGCUAAGGGGGCCUGGAAGUUUGGACUGGGCAGAGCUCAACACAGCGUGGCAAAGUGGCCGUGGCUAGACUGCCUCUCUGGAUUCCUCGUCACUCAGCAGGGCAUCUCUGAGAGAAAUGCC [A24G U85C] | 0
28 | UACGUAGGUGGUUUUCCCCUGAUGGUGCUAAGGGGGCCUGGAAGUUUGGACUGGGCAGAGCUCAACACAGCGUGGCAAAGUGGCUGUGGCUAGACUGCCUCUCUGGAUUCCUCCUCACUCAGCAGGGCAUCUCUGAGAGAAAUGCC [A24G G114C] | 1.7
29 | UACGUAGGUGGUUUUCCCCUGAUGGUGCUAAGGGGGCCUGGAAGUUUGGACUGGGCAGAGCUCAACACAGCGUGGCAAAGUGGCUGUGGCUAGACUGCCUCUCUGGAUUCCUCGUCACUCAGCAGGGCAUCUCUGAGAGUAAUGCC [A24G A140U] | 0.9
30 | UACGUAGGUGGUUUUCCCCUGAUGGUGCUAAGAGGGCCUGGAAGUUUGGACUGGGCAGAGCUCAACACAGCGUGGCAAAGUGGCUGUGGCUAGACUGCCUCUCUGGAUUCCUCGUCACUCAGCAGGGCAUCUCUGAGAGAAAUGCC [A24G G33A] | 0.35
31 | UACGUAGGUGGUUUUCCCCUGAUGGUGCUAAGGGGGCCUGGAAGUUUGGACUGAGCAGAGCUCAACACAGCGUGGCAAAGUGGCUGUGGCUAGACUGCCUCUCUGGAUUCCUCGUCACUCAGCAGGGCAUCUCUGAGAGAAAUGCC [A24G G54A] | 0.67
32 | UACGUAGGUGGUUUUCCCCUGAUGGUGCUAAGGGGGCCUGGAAGUUUGGACUGUGCAGAGCUCAACACAGCGUGGCAAAGUGGCUGUGGCUAGACUGCCUCUCUGGAUUCCUCGUCACUCAGCAGGGCAUCUCUGAGAGAAAUGCC [A24G G54U] | 0.68
33 | UACGUAGGUGGUUUUCCCCUGAUGGUGCUAAGGGGGCCUGGAAGUUUGGACUGCGCAGAGCUCAACACAGCGUGGCAAAGUGGCUGUGGCUAGACUGCCUCUCUGGAUUCCUCGUCACUCAGCAGGGCAUCUCUGAGAGAAAUGCC [A24G G54C] | 0.72
34 | UACGUAGGUGGUUUUCCCCUGAUGGUGCUAAGGGGGCCUGGAAGUUUGGACUGGGCAGAGCUCAACACAGCGUGGCAAAGUGGCUGUGGCUAGACUGCCUCUCUGGAUUCCUCGUCACUCAGCAGGGCAUCUCUGAGAGAGAUGCC [A24G A141G] | 1.22
35 | UACGUAGGUGGUUUUCCCCUGAUGGUGCUAAGGGGGCCUGGAAGUUUGGACUGGGCAGAGCUCAACACAGCGUGGCAAAGUGGCUGUGGCUAGACUGCCUCUCUGGAUACCUCGUCACUCAGCAGGGCAUCUCUGAGAGAAAUGCC [A24G U109A] | 2.43
36 | UACGUAGGUGGUUUUCCCCUGAUGGUGCUAAAGGGGCCUGGAAGUUUGGACUGGGCAGAGCUCAACACAGCGUGGCAAAGUGGCUGUGGCUAGACUGCCUCUCUGGAUUCCUCGUCACUCAGCAGGGCAUCUCUGAGAGAAAUGCC [A24G G32A] | 1.13
37 | UACGUAGGUGGUUUUCCCCUGAUGGUGCUAAGGGUGCCUGGAAGUUUGGACUGGGCAGAGCUCAACACAGCGUGGCAAAGUGGCUGUGGCUAGACUGCCUCUCUGGAUUCCUCGUCACUCAGCAGGGCAUCUCUGAGAGAAAUGCC [A24G G35U] | 1.15
38 | UACGUAGGUGGUUUUCCCCUGAUGGUGCUAAGGGGGCCUGGAAGUUUGGACUAGGCAGAGCUCAACACAGCGUGGCAAAGUGGCUGUGGCUAGACUGCCUCUCUGGAUUCCUCGUCACUCAGCAGGGCAUCUCUGAGAGAAAUGCC [A24G G53A] | 1.8
39 | UACGUAGGUGGUUUUCCCCUGAUGGUGCUAAGGGGGCCUGGAAGUUUGGACUGGGCAGAGCUCAACACAGCGUAGCAAAGUGGCUGUGGCUAGACUGCCUCUCUGGAUUCCUCGUCACUCAGCAGGGCAUCUCUGAGAGAAAUGCC [A24G G74A] | 0.93
